# Assay results from the DeepSol protein solubility set.
# Assay: soluble on expression in E. coli; label from the status in PepcDB or PDB records
row,Sequence,soluble on expression in E. coli
1,MAAVVALSLRRRLPATTLGGACLQASRGAQTAAATAPRIKKFAIYRWDPDKAGDKPHMQTYKVDLNKCGPMVLDALIKIKNEVDSTLTFRRSCREGICGSCAMNINGGNTLACTRRIDTNLNKVSKIYPLPHMYVIKDLVPDLSNFYAQYKSIEPYLKKKDESQEGKQQYLQSIEEREKLDGLYECILCACCSTSCPSYWWNGDKYLGPAVLMQAYRWMIDSRDDFTEERLAKLQDPFSLYRCHTIMNCTRTCPKGLNPGKAIAEIKKMMATYKEKKASV,not soluble
2,SKFLDVECLSELQRKLNDLELTDYRVRCQLEAYSCKPAGFDKKLSKSLEQKLVEQLEASPRVLEGSPVGSLEDQSARKTLINLICTLNAAHQDYDFSSLQLSRLKRVQDVRSLQQHVDSLFELFYRQLGLEFRQFLWENIGQIIRPEECEVYSYLPDYESDPYSASGALWSFCYFFYHKNMKKILFFSCTLSTRLAEDSESTESVDEEDFGKESSGLETPFAMFETVI,soluble
3,MGGGGHGGGITYKGVTVHTPKTWHTVTGKGLCAVMWFWILYRAKQDGPVVMGWRHPWDGHGDHGHGDHH,not soluble
4,MLDNRPIGVFDSGIGGLTIVKNLMSILPNEDIIYFGDIARIPYGTKSRATIQKFAAQTAKFLIDQEVKAIIIACNTISAIAKDIVQEIAKAIPVIDVITAGVSLVDNLNTVGVIATPATINSNAYALQIHKKNPNIEVYSNPCGLFVSMIEEGFVSGHIVELVAKEYLSYFHDKNIQALILGCTHYPIIKESIAKILDVKLIDPSLQASKMLYSLLFENKLLNTTKSNPEYRFYVTDIPLKFRSVGEMFLQTEMQHLEIVSLDSY,not soluble
5,MGGYGGVKMEGMLKGEGPGPLPPLLQQYVELRDRYPDYLLLFQVGDFYECFGEDAERLARALGLVLTHKTSKDFTTPMAGIPIRAFDAYAERLLKMGFRLAVADQVEPAEEAEGLVRREVTQLLTPGTLTQEALLPREANYLAAIATGDGWGLAFLDVSTGEFKGTLLKSKSALYDELFRHRPAEVLLAPELRENEAFVAEFRKRFPVMLSEAPFEPQGEGPLALRRAQGALLAYARATQGGALSVRPFRLYDPGAFVRLPEASLKALEVFEPLRGQDTLFGVLDETRTAPGRRLLQAWLRHPLLERGPLEARLDRVERFVREGALREGVRRLLFRLADLERLATRLELSRASPRDLAALRRSLEILPELKGLLGEEVGLPDLSGLLEELRAALVEDPPLKVSEGGLIREGYDPDLDALRRAHAEGVAYFLDLEAREKERTGIPTLKVGYNAVFGYYLEVTRPYYEKVPQEYRPVQTLKDRQRYTLPEMKERERELYRLEALIKRREEEVFLALRERARKEAEALREAARILAELDVYAALAEVAVRHGYTRPRFGERLRIRAGRHPVVERRTAFVPNDLEMAHELVLVTGPNMAGKSTFLRQTALIALLAQIGSFVPAEEAELPLFDGIYTRIGASDDLAGGKSTFMVEMEEVALVLKEATERSLVLLDEVGRGTSSLDGVAIATALAEALHERRCYTLFATHYFELTALALPRLKNLHVAAKEEEGGLVFYHQVLPGPASKSYGVEVAEMAGLPKEVVERARALLSAMAARREGALEEVLERLLALDPDRLTPLEALRFLHELKALALGLPLGSMKG,soluble
6,MVSNAYQGIGSEYETLLKASGRENEVFKKRVGKDRVMATTVHGWWQETMWQRSSSLFTDGRICSCWRLSPTSSRGLQPTYQRKRDFTTGRYGKNACG,not soluble
7,MAKKKIVAVIQARMGSSRLPGKVLMTVAGKPLLEHIIDRLRRSRTLDDIVIATSDKPCDDPLVDFAQTRGVTLVRGSEDNVLLRFNKAAEEVDADVIIRVTGDAPLVDPEVMDRLVRTLLQEGAEYCTIEAGINSIHEGFCTFTRGALKRLMTEAPDDPVAIEHVTAYFIAHPDKFHIARIPVGNEHRFKGARLSVDTPADVQFFDELYRLLGVPAGDADIADVVRLLRNNPHLLQINQHVYQKKATDRSHKVLIRCDGDSRTGLGHVVRCLALAGELREKQGCGIIFAMASGEPGMKMVRQADFPLERQEDADEGEWMDGLISRHHPDVLILDIRNDLPVEKVDSWREDGILVVGIDDPTPRRLAADLLFYPPIPQISELNWNNFNGEICSGWEWVLLRKQFCAPCPPRNNNPPALLLTMGGSDPANFTVRVLRVLDELQNDFETIVVIGAGFVHEEDLQQFLSQARRHYRIEREVSDMASLMRQADLAIASFGVTAYELAASGVPAVYLCLTPDHARSASKFVDDRLAFSCGVLEECSNERIIESTLSLLDSRELRHEVGRRACATVDGYGATRIATKIVEKLERMHSSHGLEHHHHHH,not soluble
8,MSLKVVSLLTDFGDFYPGVMKGVILSLAPEARIVDITHSVEPQNILQGAFLLYHSFRYFRNAVHVAVVDPGVGSERRALVIEGKNHFFVGPDNGILYPSAVEDGIKAAYSIKEEISELVGELSSTFHGRDIFAPAAAMVVRGDYTYFEEINKEELEKLELFDCSIQGNKVRCRVVYVDRFGNVVTNLREVKGKGFYFRGVEFPFVKTYSDVDVGKPLSLIGSFGTLELSVREGSAAEMLGIKRGGGWIELEVLEGGSHHHHHH,soluble
9,MPKKEKMAKTPLSDEKQLLLFQQKLLAEEEMAKKKERLLSQFLKDKLAKEEHNSALNLNKINTQWRTVLREVKTRELHKDIEILSQTFERVVDCKDNVIKSLAKDLSEAEEQYAHALRSHLHNVDQLLALQRHRLSLLEESYNMELEALTKEFETERKTIIDQHEKEIHYLQDIFMAMEQNYIDSEYESKLEFQSMWNDLKNMNLEEKHFLRLHLENRVEDLWRKFQDVLKNYTDATEDRKAAFETLQVKDEKSSKEIEVQMKKIQKLQDAITISKGKIMIHSRESEDENRYIRNDKELVLVQLRKLKAQRTQARAASQKNLVRLTLESNATLKALRKIVDKGEKILKLAEICRKFETEEEKVLPFYSSVLTPKEQEGIQKNNLEELTEELTKVMVDYIGMENFWKRYNKVKLEQLSLQHRRAQLLDINGKLREMLKQYLDGISVSDEVLSQLNPLFIVNYQSNLLQPLSIRIAHPGDKQHPTT,soluble
10,MAHHHHHHMISRINIDGSVNGRFCKKINNNIDCKLNFNTYAKNDTRNMYEMSLEVNKPLYTYNFKSIWQGAWIFNTSYTQLLTKKLQAGVDLTYIASNCASIGSFGLRYNHKNNVLTMQIVRQPNFKSPEFMLNQTHLYKIQYAKKISDRLSLGTELEITPQTKESAMRLGWDYSFRHAKVQGSIDTSGKISVFTQDYSGFGVSGYIDYLNNDYKFGFMMHISPSQEQPQTAA,not soluble
11,EHIKQKNSEIAELTLQNQRDADSVEYYKALVSQDEKQKVLIHDIKKHLNAIASLNEQHDSEKIAAYLTHVLGSSELKHSVRVCDNDLLNALLCRYQKICLTKKIALHIDIRSKCIDFVTYDDLSVLFGNLMDNAVESAEKTVNPFIELNVFHKENNNMTIITLIDSCRVNPIDKNGNLLPTKKPNPQFHGFGMRSIENIVKKYNGEMTFYFDDPTKTFHTIIMLRH,not soluble
12,MTVTDLSKKPLLLLDHVTMQFGGLVAVDDFTNEIREGELVGLIGPNGAGKTTVFNVITGIYTPTKGRIVFNDIDITGLRPYQITHLGIARTFQNIRLFSDMTVLENVLVAQHHVLSNPDADRILVKHGKPRKGHGRFWFWRAVTKIGYLKKEKEMVERAKDLIKRVGLEKVMYEKASSLPYGEQRKLEIARALATEPKLILLDEPAAGMNPKETEDLMEFIKQIRKDFNLTVLLIEHDMKVVMGICERIIVMDYGRIIAEGTPKEIQNDPRVIEAYLGREWESV,soluble
13,MSLQEIKGLSFYHQDWEVYCSNTGTCRAAGYQSDDGSQQPASILLTREAGSKQPVQAEFALAGDDQETFAANKIKNIRFYVNGKDLGTVSVKGVDSPLMGKLSTAQVNGLLQQATQKVDIVFKNNHYVWKISDSGMTAALLKVDDFQKRIGTVGALVKKGKSDDSKVLMPQPKLVIKKVKTADQPYLTLNPKNKQYASLYKLLMAAQPTPKEDGFCEGVYDFDSDAITAQSIELYKLTNNKVLATTLCWRGAYNEGYGAWVLNQSLTGPATYITQSASDIASGIISSAQKGRGIGDCWMSQSWIWNGQKYVQNQDMWTGMCKGLAAGGVWELDQIEAVVKEGHHHHHH,soluble
14,MFRISLEEFEGPLDLLLFFIKRDELDIYNIPISKITGDFIAYIHAMRRLNLEVAAEFIYMASMLMSIKARMLLPRAEPVDGEADEFDPRTELVQRLLEYKRIKEGASELELMALDRERMFPRGYFEELEPAVIDEMDEPVNRPTLYHLMLAYQSVLDNMPKVRTQNVTDAPVTVEEQSALIMARLGERLQVSFTSLFQEFREAIVIVVTFLAVLELCRNRKISVIVKEGVNDFWISQRDHAE,soluble
15,MSVNSIYTDREEIDSEFEDEDFEKEGIATVERAMENNHDLDTALLELNTLRMSMNVTYHEVRIATITALLRRVYHFIATQTLGPKDAVVKVFNQWGLLFKRQAFDEEEYIDLMNIIMEKIVEQSFDKPDLILFSALVSLYDNDIIEEDVIYKWWDNVSTDPRYDEVKKLTVKWVEWLQNADEESSSEEE,soluble
16,MSSNVPADMINLRLILVSGKTKEFLFSPNDSASDIAKHVYDNWPMDWEEEQVSSPNILRLIYQGRFLHGNVTLGALKLPFGKTTVMHLVARETLPEPNSQGQRNREKTGESNCCVIL,soluble
17,MMSSQAWTDVENDLIVADYFAMLAEDVAGHPYNKAEHRRQLLPRLNDRSDGSVEFKHQNISAVLKGLGEVWITGYKPAFNFQTSLVDAVARWLVINPGWTHRTLSSRPVDGMAEAAQLWVGPAPTLTNQPSPDELEQMLHIAKKFDVAARDGRNRALGKAGEERVLKHERNTLTAAGREDLAQQIRWVSEEEGDGAGYDIASFDADGRQRLIEVKTTNGWERTPFHISRNELAVADERREEWCLFRLWNFARTPKAFELRPPLDAYVSLTATSFQASIHLEHHHHHH,not soluble
18,RSTMKYIRTLSAEIGILEGGNLDYRITVTGSDEMAVLAKGLDSMRESIRDKISQEAELIRLNQSMITGLSHDLRTPLTALLIYTEILKNEIDADRKQMQKWVLKIDEKAHQIKDMADCILNYSLLKKAAGPTALRQEPFRSVFYDSLSELCVCLEQKGFEVRPSLAWEDREICADSKYITRILDNICSNIIKYASCGDPIRIESFYQTDGCGLVFENKKSANQTQAESTGIGVRNIREMMEEMGGCCEAEETSEDYRIRLTFACSPAV,not soluble
19,MVSLDKAVIARLRKGGEEFEVLVDPYLARDLKEGKEVNFEDLLAAEEVFKDAKKGERASVDELRKIFGTDDVFEIARKIILEGEVQITAEQRREMLEAKRKQIINFISRNTIDPRTNAPHPPSRIERALEEAKVHIDIFKSVEAQVKDIVKALKPILPLKFEEMEIAIKIPPEHTGRAISALYNFGGVTREEWQRDGSWICVMRIPSGMYGDLMDLLGKVAKGEALTKVLRRIG,not soluble
20,MSLNGSMVYGDFIRNQEVRKRITKEELGIEEDEIPERVVVTPMPFNTQFPKNFEDTLTNLGIKVNRLKVEDQILRQFGGNLLLEKDGNRGFIAFIGRGLIDFTERIRILATVSRIKDILFIGTAGSLSNEILIGDLNIPKYAIPFENVSDFYADPTIAIPQADEKLLNEVYEYAEETGVKTHSTLHATLLFPYSETTEFLNYLLNIGVSTIDMEVSAFYKMSRFYGKRAVAVLRISDMPLIELHKQEELIKARREIAVNAVFRITLRFLKLEGHHHHHH,soluble
21,MDTQNLPDQIIPIFMSFDKNYALGASVSLYSLLSHASRHTSMIDFSPLNQSNKLLGANIVYKIHCLVKGVTLEQQNKLLKTIAPFKKFASLEFIHINSLDHSIESYLNKSCSKRYGGLLVLCRLLLASLFPNYSKIISIDADTVFLGDVASAYFALDNDPTKSLGMVRDTFSHLSFEAFCDFCKRACKNFKIDFSRFSPDELKRIHQGFNMGFLVAHLDRWRQDGFEKTALEFLKTRGKDLFYPEQCLVNMVFWERILELPIYYNCYSDFFKEHYPKNIIMLHFIKYKPWRSVSSLNGRLICYEAEASFWLANLFHTPFKNDFFKERLEMAKDQQMQSFKTHIRSQTIRNYLGFRVKNILKKVFKLSLEHHHHHH,soluble
